Patent publication US20210062216

Target: T1, Myc:SlRin4-3 (pGWB518, N-terminal Myc tag)
T1 chain: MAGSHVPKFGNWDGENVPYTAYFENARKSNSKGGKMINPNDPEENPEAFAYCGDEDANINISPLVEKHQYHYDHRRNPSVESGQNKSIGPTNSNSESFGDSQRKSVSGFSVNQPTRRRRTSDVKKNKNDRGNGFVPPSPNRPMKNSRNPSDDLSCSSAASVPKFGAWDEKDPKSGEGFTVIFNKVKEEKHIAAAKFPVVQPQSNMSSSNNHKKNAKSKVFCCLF

B1: AvrRpt2:Myc (avrRpt2 of Pseudomonas syringae pv. tomato NY15125 in pGWB417, C-terminal Myc tag) (protein)
chain: MKIAPVAINHSPLSREVPSHAAPTQAKQTNLQSEAGDLDARKSSASSPETRALLATKTVLGRHKIEVPAFGGWFKKKSSKHETGGSSANADSSSVASDSTEKPLFRLTHVPYVSQGNERMGCWYACARMVGHSVEAGPRLGLPELYEGREGPAGLQDFSDVERFIHNEGLTRVDLPDNERFTHEELGALLYKHGPIIFGWKTPNDSWHMSVLTGVDKETSSITFHDPRQGPDLAMPLDYFNQRLAWQVPHAMLYR
  abundance of Rin4 protein, c-Myc immunoblot of N. benthamiana leaves 28 hr after agroinfiltration: a decrease in the abundance of Rin4 protein
